These results are taken from paper PMC4107924 (IUCrJ, 2014).

This assay addresses T1, MATβV1Δ16, MATβV1 lacking the first 16 amino acids (human, UniProt Q9NZL9 17-334).
T1 construct: MATβV1 (splicing variant 1 of mat2B), human, lacking the first 16 amino acids; Cloned via NcoI and XhoI sites like MATβV1; source: cloned in the HIS-parallel vector
Briefly: SEC; MATα and MATβ incubated 1 h at 4°C in 50 mM HEPES pH 7.5, 10 mM MgCl2, 50 mM KCl, 300-500 µM NADP; Superdex 200 10/300 in 200 mM NaCl, 25 mM HEPES pH 7.5, 1 mM MgCl2, 5 mM KCl, 1 mM TCEP; also tested for the effect of NADP. The settings on record: both partners purified. In general terms: In gel filtration, larger molecules generally elute earlier.

B1: MATα1, catalytic subunit of methionine adenosyltransferase (mat1A gene) (enzyme)
chain: not shown
notes: MATα1, catalytic subunit encoded by mat1A, human; construct provided by SGC Oxford; His tag cleaved with TEV protease; also called MAT(α1)4; source: E. coli BL21(DE3), purified (nickel resin, HiTrap Q ion exchange, Superdex 200 gel filtration)
Take B1: the binding result is reported as “binds”.
